In US20230312741A1 (published 2023):

B1: ADI-37504 (antibody, human IgG4 S228P, kappa, F234A L235A, V domains shown)
VH: EVQLLESGGGLVQPGGSLRLSCAASGFTFHNYAMSWVRQAPGKGLEWVSAISGTGRATYYADSVKGRFTISRDNSKNTLYLQMNSLRAEDTAVYYCARGGPYGSGSYWDTFDYWGQGTLVTVSS
VL: EIVMTQSPATLSVSPGERATLSCRASQSVSSNLAWYQQKPGQAPRLLIYGASTRATGIPARFSGSGSGTEFTLTISSLQSEDFAVYYCQQYTNHYTFGGGTKVEIKR
B2: ADI-37507 (antibody, human IgG4 S228P, kappa, F234A L235A, V domains shown)
VH: EVQLLESGGGLVQPGGSLRLSCAASGFTFLNYAMAWVRQAPGKGLEWVSAISGRATSTYYADSVKGRFTISRDNSKNTLYLQMNSLRAEDTAVYYCARGGPYGSGSYWDTFDYWGQGTLVTVSS
VL: EIVMTQSPATLSVSPGERATLSCRASQSVSSNLAWYQQKPGQAPRLLIYGASTRATGIPARFSGSGSGTEFTLTISSLQSEDFAVYYCQQYTNHYTFGGGTKVEIKR
B3: ADI-37532 (antibody, human IgG4 S228P, kappa, F234A L235A, V domains shown)
VH: QVQLVESGGGVVQPGRSLRLSCAASGFTFSSYSMHWVRQAPGKGLEWVAHIVEGSDKYYADSVKGRFTISRDNSKNTLYLQMNSLRAEDTAVYYCARSRYDWSLFDIWGQGTMVTVSS
VL: EIVLTQSPGTLSLSPGERATLSCGASQSVSSSYLAWYQQKPGQAPRLLIYGASSRATGIPDRFSGSGSGTDFTLTISRLEPEDFAVYYCQQYVLYPFTFGGGTKVEIKR
B4: ADI-37513 (antibody, human IgG4 S228P, kappa, F234A L235A, V domains shown)
VH: EVQLLESGGGVVQPGRSLRLSCAASGFTFNFYGMHWVRQAPGKGLEWVAVINDEGINKYYADSVKGRFTISRDNSKNTLYLQMNSLRAEDTAVYYCARGGARYPIAFDIWGQGTMVTVSS
VL: DIQLTQSPSSVSASVGDRVTITCRASQDISSWLAWYQQKPGKAPKLLIYAASSLQSGVPSRFSGSGSGTDFTLTISSLQPEDFATYYCQQANDFPITFGGGTKVEIKR
B5: ADI-37522 (antibody, human IgG4 S228P, kappa, F234A L235A, V domains shown)
VH: QVQLVESGGGVVQPGRSLRLSCAASGFTFSHYGMHWVRQAPGKGLEWVAVISDEGSNKYYADSVKGRFTISRDNSKNTLYLQMNSLRAEDTAVYYCARGWLRYPIAFDIWGQGTMVTVSS
VL: DIQLTQSPSSVSASVGDRVTITCRASQDISSWLAWYQQKPGKAPKLLIYAASSLQSGVPSRFSGSGSGTDFTLTISSLQPEDFATYYCQQANDFPITFGGGTKVEIKR
B6: ADI-37497 (antibody, human IgG4 S228P, kappa, F234A L235A, V domains shown)
VH: EVQLVESGGGLVQPGGSLRLSCAASGFTFDDYFMHWVRQAPGKGLEWVSGISWSSGPIDYADSVKGRFTISRDNAKNSLYLQMNSLRAEDTAVYYCAKGKYLPTGSVDYWGQGTLVTVSS
VL: EIVLTQSPGTLSLSPGERATLSCRASQSVSSSYLAWYQQKPGQAPRLLIYGASSRATGIPDRFSGSGSGTDFTLTISRLEPEDFAVYYCQQYYDYPPITFGGGTKVEIKR
B7: ADI-37496 (antibody, human IgG4 S228P, kappa, F234A L235A, V domains shown)
VH: EVQLVESGGGLVQPGRSLRLSCAASGFTFDDFYMHWVRQAPGKGLEWVSGISWSSTSIDYADSVKGRFTISRDNAKNSLYLQMNSLRAEDTAVYYCAKGKYLPTGSVDYWGQGTLVTVSS
VL: EIVLTQSPGTLSLSPGERATLSCRASQSVSSSYLAWYQQKPGQAPRLLIYGASSRATGIPDRFSGSGSGTDFTLTISRLEPEDFAVYYCQQYYDYPPITFGGGTKVEIKR
B8: ADI-37542 (antibody, human IgG4 S228P, kappa, F234A L235A, V domains shown)
VH: QVQLQESGPGLVKPSETLSLTCAVSGYSISEGYYWGWIRQPPGKGLEWIGSIYHTGFTYYNPSLKSRVTISVDTSKNQFSLKLSSVTAADTAVYYCARASIYTPPPEYFQHWGQGTLVTVSS
VL: DIQMTQSPSTLSASVGDRVTITCRASQSISSWLAWYQQKPGKAPKLLIYDASSLESGVPSRFSGSGSGTEFTLTISSLQPDDFATYYCQQSRIYSTFGGGTKVEIKR

Biological target: T1, human CD73 expressed on the cell surface (human, UniProt P21589 27-549)
T1 sequence: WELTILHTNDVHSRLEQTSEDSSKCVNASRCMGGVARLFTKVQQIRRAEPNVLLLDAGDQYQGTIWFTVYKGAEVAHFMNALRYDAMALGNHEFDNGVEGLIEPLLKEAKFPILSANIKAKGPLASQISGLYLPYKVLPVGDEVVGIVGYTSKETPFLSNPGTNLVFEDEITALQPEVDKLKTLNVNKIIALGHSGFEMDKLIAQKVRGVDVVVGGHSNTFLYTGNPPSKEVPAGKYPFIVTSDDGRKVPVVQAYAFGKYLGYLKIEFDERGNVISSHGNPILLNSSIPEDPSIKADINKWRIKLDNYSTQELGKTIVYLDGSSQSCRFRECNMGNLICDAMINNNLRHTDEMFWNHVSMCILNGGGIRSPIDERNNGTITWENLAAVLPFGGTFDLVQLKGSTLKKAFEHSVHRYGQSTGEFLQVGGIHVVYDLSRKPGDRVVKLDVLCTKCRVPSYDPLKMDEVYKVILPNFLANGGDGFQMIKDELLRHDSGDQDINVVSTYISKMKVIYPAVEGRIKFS
Test: cell-based or functional assay

Binder | IC50 for inhibiting the enzymatic activity of CD73 (Calu-6 cells)
B1 | 0.07 µg/mL
B2 | 0.078 µg/mL
B3 | 0.114 µg/mL
B4 | 0.143 µg/mL
B5 | 0.146 µg/mL
B6 | 0.147 µg/mL
B7 | 0.173 µg/mL
B8 | 0.189 µg/mL
